Experimental data from patent US20060282909A1 (published 2006).

T1: NF-AT3 full length (NFATC4) (UniProt Q14934)
T1 sequence: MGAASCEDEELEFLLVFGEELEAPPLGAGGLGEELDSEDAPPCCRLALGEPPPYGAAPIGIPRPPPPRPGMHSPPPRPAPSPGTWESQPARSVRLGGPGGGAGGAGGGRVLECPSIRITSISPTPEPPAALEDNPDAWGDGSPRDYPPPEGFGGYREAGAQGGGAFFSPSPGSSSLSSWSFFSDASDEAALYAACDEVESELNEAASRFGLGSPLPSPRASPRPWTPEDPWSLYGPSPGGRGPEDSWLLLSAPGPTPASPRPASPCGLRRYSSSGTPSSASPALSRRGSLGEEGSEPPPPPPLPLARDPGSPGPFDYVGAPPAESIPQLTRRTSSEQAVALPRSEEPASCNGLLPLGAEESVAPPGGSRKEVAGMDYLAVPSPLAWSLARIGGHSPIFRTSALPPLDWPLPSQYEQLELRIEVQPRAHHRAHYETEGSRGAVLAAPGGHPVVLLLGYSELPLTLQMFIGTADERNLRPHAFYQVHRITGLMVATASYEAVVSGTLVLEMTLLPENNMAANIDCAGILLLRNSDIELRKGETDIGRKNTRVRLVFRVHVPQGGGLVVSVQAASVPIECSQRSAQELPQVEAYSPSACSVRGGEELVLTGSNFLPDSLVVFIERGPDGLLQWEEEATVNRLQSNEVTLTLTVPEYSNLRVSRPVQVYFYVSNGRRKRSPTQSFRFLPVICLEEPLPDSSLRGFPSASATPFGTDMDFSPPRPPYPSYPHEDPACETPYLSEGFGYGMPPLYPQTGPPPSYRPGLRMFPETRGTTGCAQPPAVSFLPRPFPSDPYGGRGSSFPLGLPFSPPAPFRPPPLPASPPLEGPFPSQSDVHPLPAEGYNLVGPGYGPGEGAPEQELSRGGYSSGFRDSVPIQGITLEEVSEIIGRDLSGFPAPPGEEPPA

B1: full length NF-AT3 (other)
chain: T1 sequence

Legend:
[1] = target: T1, NF-AT3 full length (NFATC4); assay: cell_activity; settings: CAT reporter activation with GATA4, NF-AT3 and activated calcineurin together in rat cardiomyocytes
full-length GATA4 = full-length GATA4 (UniProt Q08369 1-441, limits assumed); assay: cell-based or functional assay
Chain of full-length GATA4 (Q08369 whole entry): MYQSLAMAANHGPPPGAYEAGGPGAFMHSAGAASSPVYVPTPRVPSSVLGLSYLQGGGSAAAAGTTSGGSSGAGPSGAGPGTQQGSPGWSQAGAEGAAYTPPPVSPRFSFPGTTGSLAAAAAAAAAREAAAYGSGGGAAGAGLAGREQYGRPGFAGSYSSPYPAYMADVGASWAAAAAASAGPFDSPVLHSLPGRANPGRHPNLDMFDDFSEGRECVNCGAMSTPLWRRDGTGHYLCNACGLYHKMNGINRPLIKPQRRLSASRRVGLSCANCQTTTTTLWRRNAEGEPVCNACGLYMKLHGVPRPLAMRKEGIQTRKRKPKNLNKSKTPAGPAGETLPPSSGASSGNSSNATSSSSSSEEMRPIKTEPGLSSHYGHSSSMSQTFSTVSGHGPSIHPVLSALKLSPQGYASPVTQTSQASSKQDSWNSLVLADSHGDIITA

| Molecule | activity [1] | activation of the BNP promoter (CAT reporter) in transfected neonatal rat cardiomyocytes (full-length GATA4) |
| --- | --- | --- |
| BNP promoter 1800 bp | > 100 fold | – |
| B1 | – | > 100 fold |
